# Measurements as given in the nanobody polyreactivity screen of Harvey et al. (2022).
# Assay: yeast display, Sf9 membrane polyspecificity reagent, FACS + sequencing; frameworks hold sequencing errors
# Summary of the method: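 Sorting gates, low and high (top ~1%), were placed on anti-HA fluorescence to track expression and on streptavidin fluorescence to track reagent binding. A clone's polyreactivity label is taken from the gate it came out of. The reagent was 10% biotinylated, detergent-solubilized Sf9 membrane, applied for 1 hour at 4 °C to galactose-induced yeast display cells.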
row,Sequence,polyreactivity (PSR sort gate)
1,QVQLVESGGGLVQAGGSLRLSCAASGITLYANAMGWYREAPGKERELVAVISKGSGSTYYPDSVKGRFTISRDNAKNTVYLQMNSLKPEDTAVYYCAAGRKGSMYYWGQGTQVTVSS,high polyreactivity
2,QVQLVESGGGLVQAGGSLRLSCAASGITLYFYARGWYRQAPGKERELVAAISRGGRTYYADSVKGRFTISRDNAKNTVYLQMNSLKPEDTAVYDCAARYTSEYSAFDYWGQGTQVTVSS,low polyreactivity
3,QVQLVESGGGLVQAGGSLRLSCAASGITLYQYAMGWYRQAPGKERELVAAISWNGGTTYYADSVKGRFTISRDNAKNNVYLQMNSLKPEDTAVYYCAADGYPYGGPSYYYWGQGTQVTVSS,high polyreactivity
4,QVQLVESGGGLVQAGGSLRLSCAASGITLYRYTMGWDRQAPGTEREFVAAISRSGGSTYYADSVKGRFTISRDNEKNTVYVQMNSLKPEDTAVYYCAARWYEKTTRPYGSWGQGTQVTVSS,high polyreactivity
5,QVQLVESGGGLVQAGGSLRLSCAASGITSKQYAMGWYRQAPGKEWELVAAISGSGTRTYYADSVKGRFTISRDNAKNTVYLQMNSQKPEDTAVYYCAAYYHLVVKRLRYDYWGQGTQVTVSS,high polyreactivity
6,QVQLVESGGGLVQAGGSLRLSCAASGITSNTYAKGWYRQATGKERELVATITSGGSTNYADSVKGRFTISRDNAKNTVYLQMNSLKPEDTAVYFCNREYWLPTQFDYWGQGTQVTVSS,low polyreactivity
7,QVQLVESGGGLVQAGGSLRLSCAASGITSPSYAMGWYRQAPGKERELVAAISTSGGDTYYADSVKGRFTISRDKAKNTVYLQMNSLKPEDTAVYYCAAPVPAYQYYYRLKSFGRRYDHWGQGTQVTVSS,low polyreactivity
8,QVQLVESGGGLVQAGGSLRLSCAASGITSVDYAMRWYRQAPGKERELVAAITWSDSSTYYADSVKGRFTISRDNAKNTVYLQMNSLKPEDTAVYYCAAEYYFWGWEFDYWGQGTQVTVSS,high polyreactivity
9,QVQLVESGGGLVQAGGSLRLSCAASGITTRTYAMGWYRQAPGKDRELVAAISDSGDRTYYADSVKGRCTISRDKAKNTVYLQMNSLKPEDTAVYYCAVDAPGPRGEYWGQGTKVTVSS,low polyreactivity
10,QVQLVESGGGLVQAGGSLRLSCAASGITVALNAMGWYRQAPGKERELVAAISWSGDSTYYADSVKGRFTISRDNAKNTVYLQMNSLKPEDTAVYYCNTYPRRFFYSQRYDYWGQGTQVTVSS,low polyreactivity
11,QVQLVESGGGLVQAGGSLRLSCAASGITVDYYVMGWYRQAPGKERELVASIDSGGRTKYADSVKGRFTISRDNAKNTVYLQMNILKPEDTAVYYCAARSYVFRSRWIRWPKYWGQGTQVTVSS,high polyreactivity
12,QVQLVESGGGLVQAGGSLRLSCAASGITVWIYAMGWYRQAPGKERELVAAITGRGGSTYYADSVKGRFTISRDKAKNTLYLQRNSLKPEDTAVYYCAAESWYSTYDYWGQGTQVTVSS,high polyreactivity
13,QVQLVESGGGLVQAGGSLRLSCAASGITYGYVMGLYRQAPGKERELVAAISYRGGSTYYADSVKGRFTISRDNAKNTVYLQMNSLKPEDTAVYYCATEASGKTYGYVAYDYWGQGTQVTVSS,high polyreactivity
14,QVQLVESGGGLVQAGGSLRLSCAASGITYTVYAMGWYRQAPGKERELVAVINESGGSTYYADSVKGRFTISRDNAKNTVYLQMNSLKPEDTAVYYCNKTRVYVSSTYDYWGLGTQVTVSS,low polyreactivity
15,QVQLVESGGGLVQAGGSLRLSCAASGIYAYVMGWYRPAPGKERELVAAISGTGGRTYYADSVKGRFTISRDNAKNTVYLQMNSLKPEDTAVYYCAARGIYQPKTFDYWGQGTQVTVSS,high polyreactivity
16,QVQLVESGGGLVQAGGSLRLSCAASGKTFDPNAMGWYIPAPGKEREFVAAIATIGSSTYYADSVKGRFTMSRDNAKNTVYLPMTCLKPEDSAVYYCAKGIYVVYGIDDYWGQGTQVTVSS,low polyreactivity
17,QVQLVESGGGLVQAGGSLRLSCAASGKTFVYYTMGWYRQAPGKERELVAAISYSGGSTYYADSVKGRFTLSRDNAKNTVYLQMNSLKPEDTAVYYCAKQVADRYDYWGQGTQVTVSS,low polyreactivity
18,QVQLVESGGGLVQAGGSLRLSCAASGLICTPYAMGWYRQSPGKERELVAAISVSGGRTYYADSVKGRFTISRDNAKNTVYLQMNSLKREDTAVYYCAAALPYGYEYWGQGTQVTVSS,high polyreactivity
19,QVQLVESGGGLVQAGGSLRLSCAASGLIFAEYAMGWYRQAPGKERELVARITSAGSTDYADSVKGRFTISRDNAKNTVYLQMNSLKPEDTAVYYCAARYYSQDKNASTASDFDYWGQGTQVTVSS,low polyreactivity
20,QVQLVESGGGLVQAGGSLRLSCAASGLIFAEYAMGWYRQAPGKERELVARITSGGSTDYADSVKGRFTISRDNAKNTVYLQMNRLKPEDTAVYYCSARYYSQDKNASTASDFDYWGQGTQVTVSS,low polyreactivity
21,QVQLVESGGGLVQAGGSLRLSCAASGLIFAGNDMGWYRQAPGKERELVARITNGGGSTYYADSVKGRFTISRDNAKNTVYLQMNSLKPEDTAVYYCNAGRSSGYSYDSWGPGTQVTVSS,low polyreactivity
22,QVQLVESGGGLVQAGGSLRLSCAASGLIFAIYAMGWYRKAPGKERELVAAISSGGGRTYYADSVKGRFTISRDNAKNTVYLQMNSLKPEDTAVYYCNARYRTVRSGGEYWVLMDYWGQGTQVTVSS,high polyreactivity

row,Sequence,polyreactivity (PSR sort gate)
1,QVQLVESGGGLVQAGGSLRLSCAASGLIFANNAMGWYRQAPGKERELVAVISRGGRTYYADSVKGRFTISRDNAKNTVYLQMNSLKPEDTAVYYCAKPVLVGLGARYVYWGQGTQVTVSS,high polyreactivity
2,QVQLVESGGGLVQAGGSLRLSCAASGLIFASYAMGWYRQAPGKERELVAAITSSGGSTYYADSVKGRFTISRDNAKNTVYLQMNSLKPEDTAVYYCAADIYTYNLFYHWSWLDYNYWGQGTQVTVSS,high polyreactivity
3,QVQLVESGGGLVQAGGSLRLSCAASGLIFDANAMGWYRLAPVKERELVAAITGSGGRTYSADSVKGRFTISRDTANYTVYCQMNCLKPEATGVYYCAASSKRKVLYNYWGQGTQVTVSS,high polyreactivity
4,QVQLVESGGGLVQAGGSLRLSCAASGLIFDPNTMGWYRQAPGKERELVAAISSGGDTNYADSVKGRFTISRDNAKNTVYLQMNSQKPEDTAVYYCATDIRFHDPSEYEGVHFEYWGQGTQVTVSS,low polyreactivity
5,QVQLVESGGGLVQAGGSLRLSCAASGLIFEYYAMGWYRQAPGKERELVAVINWSGASTYYADSVKGRFTISRDNAKNTVYLQMNSLKPEDTAVYYCAAGVLITGLRFDYWGQGTQVTVSS,low polyreactivity
6,QVQLVESGGGLVQAGGSLRLSCAASGLIFGINAMGWYRQAPGKERELVASISRSTTRTYYADSVKGRFTISRDNAKNTVYLQMNSLKPEDTAVYYCAARQSPNRWMGYWGQGTQVTVSS,high polyreactivity
7,QVQLVESGGGLVQAGGSLRLSCAASGLIFGPNAMGWYRQSPGKERELVAAITKSGDSTYYADSVKGRFTISRDNAKNTVYLQMNSLKPEDTAVYYCAADTTTGLYDYWGQGTQVTVSS,low polyreactivity
8,QVQLVESGGGLVQAGGSLRLSCAASGLIFGPYAVGWYRQAPGKERELVAGISRGGSTYYADSVKGRFTISRDNAKKTVYLQMNSLKPEDTAVYYCAASRRYRGVNRPGDYWGQGTQVTVSS,high polyreactivity
9,QVQLVESGGGLVQAGGSLRLSCAASGLIFGRNVMGWYRQAPGKERELVAAISWSGGRTYYADSVKGRFTISRDNEKNTVYLQMNSLKPEDTAVYYCAAGYPYYYWTPYYYWGQGTQVTVSS,high polyreactivity
10,QVQLVESGGGLVQAGGSLRLSCAASGLIFGVNAMGWYRQAPGKERELVAVISRGGRTNYADSVKGRFTISRDNAKNTVYLQMNSLKPEDTAVYYCATYYTNKVPARYYWGQGTQVTVSS,high polyreactivity
11,QVQLVESGGGLVQAGGSLRLSCAASGLIFGVYAMGWYRQAPGKESELVAAISKNGDRTYYADSVKGRFTISRDNAKNTVYLQMNCLKPEDTAVYYCAAVWARSTYGPYYYWGQGTQVTVSS,high polyreactivity
12,QVQLVESGGGLVQAGGSLRLSCAASGLIFGYNAMGWYRQAPGKERELVAGISSGGSTNYADSVKGRFTISRDNAKNTVYLQMNSLKPEDTAVYYCNADGYLAERFVIRLDEYRDYDYWGQGTQVTVSS,low polyreactivity
13,QVQLVESGGGLVQAGGSLRLSCAASGLIFHHNAMGWYRQTPGKERELVAAISRSAGSTYYADSVKGRFTISRDNAKNTVYLQMKSLKPEDTAVYYCAKGPTPTSKYDTVGYGYWGQGTQVTVSS,low polyreactivity
14,QVQLVESGGGLVQAGGSLRLSCAASGLIFHPYTMGWYRQAPGKERELVAAITSTGGSTYYADSVKGRFTISRDNAKNTVYLQMNSLKPEDTAVYYCATDYGYYDYWGQGTQVTVSS,low polyreactivity
15,QVQLVESGGGLVQAGGSLRLSCAASGLIFHSYAMGWYRPAPGKERELVAAISRGGGSTYYADSVKGRFTISRDNAKNTVYLQMNSLKPEDTAVYYCAREYFTRYDYWGQGTQVTVSS,high polyreactivity
16,QVQLVESGGGLVQAGGSLRLSCAASGLIFHTYAMGWYRQAPGKERELVAAIRGGGSTNYADSVKGRFTISRDNAKNTVYLQMKSLKPEDTAVYYCNATWNLFPGVLDRYDYWGQGTQVTVSS,low polyreactivity
17,QVQLVESGGGLVQAGGSLRLSCAASGLIFIAYAMRWYRQAPGKERELVAAISSSGGSTYYADSVKGRFTISRDNAKNTVYLQMNSLKPEDTAVYYCAADRYAWGTGRYGYWGQGTQVTVSS,low polyreactivity
18,QVQLVESGGGLVQAGGSLRLSCAASGLIFIKYTMGWYRQAPGKERELVAVISGSGGSTYYADSVKGRFTISRDNAKNTVYLQMNSLKPEDTAVYYCAARSYALGYGGGYWGQGTQVTVSS,high polyreactivity
19,QVQLVESGGGLVQAGGSLRLSCAASGLIFISYAMGWYRQAPGKERELVAAITSTVGGTYYADSVKGRFTISRDNAKNTVYLQMNSLKPEDTAVYYCAAEISYRWWYNLGFTSFVYWGQGTLVTVSS,low polyreactivity
20,QVQLVESGGGLVQAGGSLRLSCAASGLIFIYNTMGWSRQAPGKERELVAAISGRGGSTYYADSVKGRFTISRDNAKNTVYLQMNSLKPEDTAVYYCAAQDTYHSYGLYSWGQGTQVTVSS,low polyreactivity
21,QVQLVESGGGLVQAGGSLRLSCAASGLIFKLYAMGWYRQAPGKERELVAAITDRGGSTYYADSVKGRFTISRDNAKNTVYLQMNSLKPEDTAVYYCAAPYAGWRDGGDYWGQGTQVTVSS,low polyreactivity
